Source: the supplement of paper PMC10567573

B1: C22orf15 (parent)
chain: ITQSWQVSVRVQPRGRAHLLPNPY
B2: ZNF449 (parent)
chain: HTGERPYECTVCKKRFTRRSHLIG

Variants of: B1
Experiment: protein stability index of a GFP-peptide fusion (GPS, HEK-293T) (PSI 1-6); higher = more stable
Conditions: c terminus: a fixed tail appended
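Note: lentivirally expressed fusions sorted by FACS into six bins by GFP to DsRed ratio, PSI derived from sequencing read proportions per bin multiplied by bin number.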

Protein stability index of substitutions, site by site:
I1: D 2.12 | A 2.73 | L 1.5 | G 1.92 | C 4.55 | K 2.18 | F 2.74 | H 2.61

Variants of: B2
Experiment: as above
Conditions: c terminus: a fixed tail appended

Protein stability index, by site and new letter:
E8: P 1.94 | A 1.77 | L 2.77 | I 2.74 | H 2.12 | W 2.23 | R 2.22 | D 2.72 | Y 2.15 | C 2.38 | V 2.35 | T 2 | N 1.79 | S 2.32 | G 1.84 | F 1.84 | Q 2.76 | K 1.96
T17: N 2.21 | C 4.7 | F 1.51 | H 3.25 | A 2.19 | I 2.3 | M 1.22 | L 2.19 | P 1.78 | K 2.52 | G 1.82 | W 2.03 | V 1.92 | R 2.95 | E 2.63 | S 1.94 | D 1.9
S20: M 2.21 | W 3.27 | G 2.47 | D 2.46 | N 2.69 | A 1.44 | C 1.86 | Q 1.88 | H 2.37 | E 2.53 | T 2.18 | P 2.31 | K 2.26 | R 2.9 | V 1.99 | I 1.57 | Y 3.34 | L 2.44 | F 1.9
C9: F 2.39 | I 3.17 | D 4.05 | K 3.97 | W 3.62 | N 3.63 | L 2.83 | T 3.14 | Y 3.67 | Q 3.64 | G 3.94 | H 3.03 | M 2.8 | A 3.85 | V 3.01 | R 3.99 | P 3.7 | S 3.69 | E 3.31
T10: N 2.17 | P 1.82 | F 2.88 | Q 1.36 | D 1.97 | S 2.52 | C 2.54 | A 2.42 | V 1.39 | W 1.3 | M 2.51 | Y 3.04 | I 3.07 | L 2.37
V11: T 3.47 | D 2.44 | L 2.08 | M 1.91 | C 2.29 | F 1.47 | I 1.58 | Y 2.64 | W 2.6 | S 2.58 | K 3.82 | E 3.06 | Q 3.12 | H 2.99 | R 2.39 | P 2.58 | N 2.8 | G 2.99
C12: I 3.31 | N 3.42 | R 3.79 | P 3.06 | V 2.76 | H 3.73 | Y 3.2 | S 3.39 | W 1.86 | M 4.64 | K 3.98 | F 3.01 | L 1.55 | D 3.99
R19: E 2.01 | T 1.84 | L 1.53 | W 2.52 | S 2.76 | K 2.54 | Y 2.1 | G 2.22 | A 1.71 | H 1.96 | P 1.94 | Q 2.34 | C 4.07 | M 1.53 | D 1.62 | I 1.39
P6: Q 3.29 | E 2.34 | N 2.3 | M 2.74 | L 1.58 | I 2.08 | A 2.67 | H 2.64 | T 2.58 | K 2.02 | F 1.75 | D 2.52 | R 1.82 | V 3.36 | W 2.38 | G 2.77 | Y 2.22
L22: I 2.23 | Q 2.58 | D 2.6 | E 3.43 | A 3.16 | Y 2.33 | H 3 | F 1.3 | V 3.02 | K 2.35 | R 3.15 | S 2.92 | M 1.86 | C 3.46 | N 2.08 | W 2.66
R18: P 1.91 | C 2.97 | F 2.18 | S 2.5 | W 2.33 | I 2.7 | A 2.13 | Q 1.81 | K 1.97 | G 2.12 | L 1.74 | V 1.59 | D 2.88 | H 1.76 | N 1.62 | M 1.5 | T 1.97
G24: P 1.95 | C 2.48 | D 2.81 | M 1.83 | A 2.27 | Y 2.9 | V 1.6 | S 2.61 | K 3.12 | W 2.53 | T 2.45 | E 1.92 | R 2.39 | F 1.2 | N 2.39 | H 1.89
K14: I 2.26 | C 2.01 | G 1.44 | S 2.27 | W 1.49 | R 1.53 | A 1.89 | D 2.29 | E 1.73 | P 1.97 | H 2.58 | V 2.09 | Q 1.75 | M 1.61 | L 1.66
K13: Q 2 | P 2.86 | E 2.42 | R 2.31 | D 2.91 | N 1.78 | T 2.33 | I 2.06 | M 1.62 | W 2.62 | F 2 | Y 2.47 | A 1.63 | L 2.09 | V 3.25 | C 1.06 | G 1.52
Y7: P 2.07 | T 2.71 | C 3.74 | E 2.88 | L 3.39 | A 2.8 | Q 2.21 | F 1.44 | M 2.11 | W 1.4 | H 2.06 | S 2.28 | D 2.6 | I 2.62 | G 2.01 | K 2.44 | R 2.12
R5: Y 2.82 | W 2 | Q 2.23 | V 2.07 | I 2.19 | L 2.09 | M 2.24 | T 3 | N 1.64 | S 2.7 | K 1.99 | P 2.01
I23: P 2.23 | S 2.55 | H 3.06 | L 2 | C 3.61 | D 2.8 | K 4.19 | A 2.64 | W 2.62 | Y 2.42 | M 1.7 | F 2.42 | R 3.41 | G 1.81 | T 2.41
F16: A 2.1 | Y 1.99 | N 2.72 | R 2.89 | H 3.32 | S 2.51 | L 1.67 | G 2.82 | W 1.96 | M 1.89 | I 1.71 | P 3.2 | D 3 | Q 2.4 | T 2 | C 2.42
H21: V 2.97 | F 1.83 | I 1.56 | C 2.1 | D 2.27 | N 2.39 | T 2.83 | P 3.26 | A 2.22 | Y 2.35 | E 2.31 | R 2.37 | S 2.93 | L 3.45 | Q 1.82 | W 2.78
R15: C 2.23 | F 1.72 | Q 1.79 | V 2.16 | W 2.56 | T 2.52 | K 2.52 | N 2.58 | S 1.52 | D 2.09 | I 2.1 | A 1.99 | Y 1.09 | L 1.39 | E 2.04 | H 3.03 | M 2.51
